In patent US20230158141A1:

How the values were obtained:
IL2Rb = molecular target: T1, IL2Rb (UniProt P14784); experiment: IP and ELISA; Cys mutant, no arm
T1 sequence (looked up): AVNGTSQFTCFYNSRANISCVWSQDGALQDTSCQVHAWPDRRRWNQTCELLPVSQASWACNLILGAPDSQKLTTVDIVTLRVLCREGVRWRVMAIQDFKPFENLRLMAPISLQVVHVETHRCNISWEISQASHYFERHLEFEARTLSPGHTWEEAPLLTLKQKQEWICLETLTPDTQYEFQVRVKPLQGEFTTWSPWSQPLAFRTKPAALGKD

IL2 receptor gamma = molecular target: T2, IL2 receptor gamma (UniProt P31785); experiment: IP and ELISA; S3 on the Cys
T2 sequence (looked up): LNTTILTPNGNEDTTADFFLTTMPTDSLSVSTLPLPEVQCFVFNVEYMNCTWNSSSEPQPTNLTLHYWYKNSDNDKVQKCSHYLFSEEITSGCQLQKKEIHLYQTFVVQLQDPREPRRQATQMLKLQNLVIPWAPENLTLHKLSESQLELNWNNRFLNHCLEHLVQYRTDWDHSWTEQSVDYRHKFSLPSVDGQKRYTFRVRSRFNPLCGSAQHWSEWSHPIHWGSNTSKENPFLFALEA

| binding activity after mutation, % of native IL2 (IL2Rb) | binding activity after conjugating to S3, % of native IL2 (IL2 receptor gamma) | Substance |
| --- | --- | --- |
| 27% | – | IL2-Leu80Cys (from UniProt P60568 21-153) (ligand) |
| – | 89.7% | IL2-Thr51Cys (from UniProt P60568 21-153) (ligand) |
